Experimental data as given in the FLAb antibody collection (doi:10.7554/elife.23156).

B1: scFv; the commonest letter at each place (parent)
chain 1: EVKLDETGGGLVQPGRPMKLSCVASGFTFSDYWMNWVRQSPEKGLEWVAQIRNKPYNYETYYSDSVKGRFTISRDDSKSSVYLQMNNLRVEDMGIYYCTGSYYGMDYWGQGTSVTVS
chain 2: DVVMTQTPLSLPVSLGDQASISCRSSQSLVHSNGNTYLRWYLQKPGQSPKVLIYKVSNRFSGVPDRFSGSGSGTDFTLKISRVEAEDLGVYFCSQSTHVPWTFGGGTKLEIK

Key:
fluorescein = variants of: B1; test: Kd (Tite-Seq); details: with fluorescein; format: scFv 4-4-20, heavy + light
[1] = variants of: B1; test: yeast surface expression (ratio to wild type); higher = more expressed; details: format: scFv 4-4-20, heavy + light

Row | Kd (fluorescein) [µM] | Variant | yeast surface expression [1]
1 | 0.972 | chain 1 F29L D31S | 0.743
2 | ≥ 10 | chain 1 M34V W36N | 0.502
3 | ≥ 10 | chain 1 D31Y W33C | 0.597
4 | 0.0205 | chain 1 W36Y V37I | 0.75
5 | ≥ 10 | chain 1 F29G D31R | 0.931
6 | ≥ 10 | chain 1 S101D Y102P | 0.719
7 | ≥ 10 | chain 1 Y32V M34D | 0.218
8 | ≥ 10 | chain 1 D31F W33I | 0.487
9 | ≥ 10 | chain 1 G100R G104S | 0.28
10 | ≥ 10 | chain 1 D31G N35Q | 0.746
11 | ≥ 10 | chain 1 Y103N G104Q | 0.766
12 | ≥ 10 | chain 1 Y103P Y107D | 0.617
13 | ≥ 10 | chain 1 V37P | 0.676
14 | ≥ 10 | chain 1 Y32P M34N | 0.503
15 | ≥ 10 | chain 1 G104Y G109T | 0.0981
16 | ≥ 10 | chain 1 S30P W33E | 1.01
17 | 7.33 | chain 1 W33Q W36S | 0.839
18 | ≥ 10 | chain 1 G100W D106F | 0.18
19 | ≥ 10 | chain 1 Y102M D106A W108A | 0.612
20 | 0.00638 | chain 1 T28C D31S | 0.694
21 | ≥ 10 | chain 1 G100M Y102V | 0.856
22 | ≥ 10 | chain 1 Y102W G109V | 0.19
23 | ≥ 10 | chain 1 S30R D31N W36A | 0.32
24 | ≥ 10 | chain 1 Y32S N35G V37K | 0.649

Row | Kd (fluorescein) [µM] | Variant | yeast surface expression [1]
25 | 9.5 | chain 1 M34R | 0.851
26 | 1.23 | chain 1 M34G | 0.682
27 | ≥ 10 | chain 1 F29Y N35W | 0.0981
28 | ≥ 10 | chain 1 G100S Y107A | 0.942
29 | ≥ 10 | chain 1 Y32W W36Q | 0.936
30 | ≥ 10 | chain 1 G100I S101Y Y107A | 0.466
31 | 0.000333 | chain 1 Y103M W108M | 1.13
32 | 0.0015 | chain 1 T28E S30V | 0.928
33 | ≥ 10 | chain 1 D31R Y32D | 0.643
34 | 0.0233 | chain 1 W108Q | 0.506
35 | ≥ 10 | chain 1 W108D | 0.345
36 | ≥ 10 | chain 1 W108R | 0.455
37 | ≥ 10 | chain 1 T28Y N35S | 0.691
38 | ≥ 10 | chain 1 Y107A G109Q | 0.292
39 | ≥ 10 | chain 1 Y103P D106H | 0.565
40 | ≥ 10 | chain 1 M34C W36L | 0.524
41 | ≥ 10 | chain 1 S101W D106I | 0.296
42 | 5.37 | chain 1 W33C N35W | 0.456
43 | ≥ 10 | chain 1 G100H Y103Q G109A | 0.293
44 | ≥ 10 | chain 1 G100C D106G | 0.553
45 | ≥ 10 | chain 1 G100R W108N | 0.348
46 | ≥ 10 | chain 1 S101H | 0.737
47 | ≥ 10 | chain 1 S101N | 0.886
48 | ≥ 10 | chain 1 S101V | 0.496

Row | Kd (fluorescein) [µM] | Variant | yeast surface expression [1]
49 | ≥ 10 | chain 1 Y32G W33N | 0.799
50 | ≥ 10 | chain 1 Y102K G109Y | 0.342
51 | ≥ 10 | chain 1 W33G W36I | 0.622
52 | ≥ 10 | chain 1 D31S V37P | 0.675
53 | ≥ 10 | chain 1 S30H D31S N35P | 0.391
54 | ≥ 10 | chain 1 N35P | 0.672
55 | 5.24 | chain 1 F29N | 1.04
56 | ≥ 10 | chain 1 G100S M105I | 0.943
57 | 0.311 | chain 1 G100S M105R | 0.929
58 | 3.04 | chain 1 Y102L D106E | 1.26
59 | 0.0171 | chain 1 T28W D31R | 0.51
60 | 6.61 | chain 1 M105V W108C | 0.461
61 | ≥ 10 | chain 1 D31M W36A | 1.72
62 | ≥ 10 | chain 1 S101N G109D | 0.316
63 | ≥ 10 | chain 1 Y32S M34K V37D | 0.882
64 | ≥ 10 | chain 1 S101H W108C | 0.28
65 | ≥ 10 | chain 1 Y102L W108Q | 0.328
66 | ≥ 10 | chain 1 S101D W108Y | 0.608
67 | ≥ 10 | chain 1 D31T W33E | 0.544
68 | 0.0507 | chain 1 T28F D31A | 0.637
69 | ≥ 10 | chain 1 D106C W108H | 0.583
70 | ≥ 10 | chain 1 M34Q V37T | 0.629
71 | 0.00184 | chain 1 S30P M34F | 1.2
72 | ≥ 10 | chain 1 T28S S30T W33R | 0.708

Row | Kd (fluorescein) [µM] | Variant | yeast surface expression [1]
73 | ≥ 10 | chain 1 S101V Y102V | 0.432
74 | ≥ 10 | chain 1 D31Y N35I | 0.469
75 | ≥ 10 | chain 1 Y102M Y103F D106Y | 0.388
76 | ≥ 10 | chain 1 M105V Y107A | 0.758
77 | ≥ 10 | chain 1 W108S G109N | 0.413
78 | ≥ 10 | chain 1 M105H W108Q | 0.294
79 | ≥ 10 | chain 1 G100W Y107D G109L | 0.227
80 | ≥ 10 | chain 1 M34C V37H | 0.466
81 | ≥ 10 | chain 1 Y102H G104F W108Y | 0.283
82 | ≥ 10 | chain 1 G100I S101G D106C | 0.777
83 | ≥ 10 | chain 1 T28Y M34L N35C | 0.495
84 | ≥ 10 | chain 1 S101W Y103A | 0.685
85 | 0.00121 | chain 1 T28N | 0.895
86 | ≥ 10 | chain 1 W36G | 0.534
87 | ≥ 10 | chain 1 Y102E Y107A | 0.904
88 | ≥ 10 | chain 1 Y32G W36H | 0.209
89 | ≥ 10 | chain 1 W36G V37Q | 1.13
90 | ≥ 10 | chain 1 S101L Y103W Y107W | 0.29
91 | ≥ 10 | chain 1 Y103T W108P | 0.468
92 | ≥ 10 | chain 1 G100Y Y107K | 0.555
93 | ≥ 10 | chain 1 D31R Y32K V37Y | 1.3
94 | 2.88 | chain 1 G100C Y107S | 0.64
95 | ≥ 10 | chain 1 Y32W W33P | 0.825
96 | 2.47 | chain 1 F29P Y32A | 1.12

Row | Kd (fluorescein) [µM] | Variant | yeast surface expression [1]
97 | 4.84 | chain 1 S30M Y32R | 0.465
98 | ≥ 10 | chain 1 Y32F W33Q | 1.23
99 | ≥ 10 | chain 1 S30D W36V V37L | 0.433
100 | 0.0132 | chain 1 Y103H | 1.1
101 | ≥ 10 | chain 1 G104L Y107C | 0.133
102 | ≥ 10 | chain 1 M34Y N35V | 0.434
103 | ≥ 10 | chain 1 N35K V37M | 0.48
104 | 0.00444 | chain 1 T28V D31M | 0.587
105 | ≥ 10 | chain 1 T28N N35T | 0.93
106 | ≥ 10 | chain 1 S101Y Y107E | 0.625
107 | 0.00239 | chain 1 Y107S | 0.77
108 | ≥ 10 | chain 1 G109R | 0.297
109 | ≥ 10 | chain 1 G109Y | 0.212
110 | ≥ 10 | chain 1 G100M M105F | 0.769
111 | ≥ 10 | chain 1 Y32R W33M | 0.809
112 | ≥ 10 | chain 1 S101R W108L | 0.22
113 | ≥ 10 | chain 1 S30C W36E | 0.214
114 | ≥ 10 | chain 1 F29L S30T V37W | 0.536
115 | ≥ 10 | chain 1 S101E Y102Q W108C | 0.541
116 | ≥ 10 | chain 1 F29I W33H M34P | 0.518
